Series [1] has as its target T1, IKKα-His (UniProt O15111).
T1 sequence: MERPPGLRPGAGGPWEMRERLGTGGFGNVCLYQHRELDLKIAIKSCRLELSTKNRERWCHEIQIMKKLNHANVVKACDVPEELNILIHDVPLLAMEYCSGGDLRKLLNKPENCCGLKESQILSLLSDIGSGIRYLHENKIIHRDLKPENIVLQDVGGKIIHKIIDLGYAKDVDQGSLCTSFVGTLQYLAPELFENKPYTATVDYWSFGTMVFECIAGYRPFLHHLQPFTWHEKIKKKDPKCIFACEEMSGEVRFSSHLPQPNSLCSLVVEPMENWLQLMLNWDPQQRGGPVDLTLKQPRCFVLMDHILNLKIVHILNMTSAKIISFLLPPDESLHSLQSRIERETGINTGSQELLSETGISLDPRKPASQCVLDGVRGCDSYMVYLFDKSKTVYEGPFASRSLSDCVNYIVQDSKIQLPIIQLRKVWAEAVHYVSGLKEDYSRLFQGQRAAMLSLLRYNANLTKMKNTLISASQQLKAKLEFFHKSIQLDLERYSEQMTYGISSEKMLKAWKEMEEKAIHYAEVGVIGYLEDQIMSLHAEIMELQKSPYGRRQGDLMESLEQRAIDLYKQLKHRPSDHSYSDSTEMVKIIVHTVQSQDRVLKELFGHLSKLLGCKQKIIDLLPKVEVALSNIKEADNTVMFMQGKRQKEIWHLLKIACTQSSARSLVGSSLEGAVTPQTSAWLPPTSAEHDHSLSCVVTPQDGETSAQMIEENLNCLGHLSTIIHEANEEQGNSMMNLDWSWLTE
The experiment in a line: pull-down (in vitro RIP-qPCR). Conditions: SPR: 10 mM HEPES pH 7.4, 150 mM NaCl, 3 mM EDTA, 0.05% P20, 25 °C; pull-down: 25 mM HEPES pH 7.5, 150 mM NaCl, 0.05% NP-40, 10% glycerol, RT; EMSA: LightShift …. (In general: A gel shift assay detects complexes by their altered migration in electrophoresis.)

The target of series [2] is T1, IKKα-His. The experiment in a line: SPR. The settings on record: SPR: 10 mM HEPES pH 7.4, 150 mM NaCl, 3 mM EDTA, 0.05% P20, 25 °C; pull-down: 25 mM HEPES pH 7.5, 150 mM NaCl, 0.05% NP-40, 10% glycerol, RT; EMSA: LightShift ….
For another series, the target named is GST-NEMO (UniProt Q9Y6K9 1-419). The series is described as follows: SPR; biotin RNA immobilized; SPR: 10 mM HEPES pH 7.4, 150 mM NaCl, 3 mM EDTA, 0.05% P20, 25 °C; pull-down: 25 mM HEPES pH 7.5, 150 mM NaCl, 0.05% NP-40, 10% glycerol, RT; EMSA: LightShift kit, 22 °C, 25 min. The settings on record: protein: recombinant; tags: GST; chain copies: 2; label: 5' biotin; hairpin.
Sequence of GST-NEMO (Q9Y6K9 whole entry): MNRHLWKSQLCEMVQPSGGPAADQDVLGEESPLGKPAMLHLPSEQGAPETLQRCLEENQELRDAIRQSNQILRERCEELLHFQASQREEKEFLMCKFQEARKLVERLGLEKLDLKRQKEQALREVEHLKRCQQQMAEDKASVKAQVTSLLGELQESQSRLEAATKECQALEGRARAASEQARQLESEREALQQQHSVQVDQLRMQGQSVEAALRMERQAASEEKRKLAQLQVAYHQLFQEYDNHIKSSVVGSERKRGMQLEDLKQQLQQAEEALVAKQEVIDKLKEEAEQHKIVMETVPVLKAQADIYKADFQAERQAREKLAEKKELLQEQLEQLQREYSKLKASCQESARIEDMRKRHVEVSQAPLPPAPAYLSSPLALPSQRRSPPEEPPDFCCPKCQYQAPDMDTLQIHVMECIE

Another series concerns the target T2, MBP-IKKα-6His (UniProt O15111 1-745).
T2 sequence: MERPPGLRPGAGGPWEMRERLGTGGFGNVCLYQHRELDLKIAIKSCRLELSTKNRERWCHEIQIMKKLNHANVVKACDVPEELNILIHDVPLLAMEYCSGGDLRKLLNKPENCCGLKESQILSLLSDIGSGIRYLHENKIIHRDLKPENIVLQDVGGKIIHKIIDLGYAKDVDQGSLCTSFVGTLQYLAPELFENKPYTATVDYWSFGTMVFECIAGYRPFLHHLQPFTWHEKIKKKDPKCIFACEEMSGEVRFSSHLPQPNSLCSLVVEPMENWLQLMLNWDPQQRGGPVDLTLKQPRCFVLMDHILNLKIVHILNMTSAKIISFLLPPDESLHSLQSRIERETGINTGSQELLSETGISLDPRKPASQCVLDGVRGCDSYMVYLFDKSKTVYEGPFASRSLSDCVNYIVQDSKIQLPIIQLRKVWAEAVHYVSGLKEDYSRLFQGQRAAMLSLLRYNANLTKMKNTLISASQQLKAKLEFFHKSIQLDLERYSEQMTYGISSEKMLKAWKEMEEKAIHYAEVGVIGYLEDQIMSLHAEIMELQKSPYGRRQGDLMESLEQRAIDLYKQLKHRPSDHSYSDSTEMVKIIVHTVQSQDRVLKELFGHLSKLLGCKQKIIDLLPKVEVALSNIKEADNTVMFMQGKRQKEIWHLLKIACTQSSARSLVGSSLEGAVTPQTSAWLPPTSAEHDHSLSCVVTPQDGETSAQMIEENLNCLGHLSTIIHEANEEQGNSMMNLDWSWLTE
The experiment in a line: SPR; biotin RNA immobilized on NeutrAvidin chip, protein analyte; text gives 6.09 ± 1.08 nM; SPR: 10 mM HEPES pH 7.4, 150 mM NaCl, 3 mM EDTA, 0.05% P20, 25 °C; pull-down: 25 mM HEPES pH 7.5, 150 mM NaCl, 0.05% NP-40, 10% glycerol, RT; EMSA: LightShift kit, 22 °C, 25 min. Conditions: protein: recombinant; tags: N-term MBP (pMAL-c5X), C-term His6; chain copies: 2; label: 5' biotin; hairpin. (SPR reads the build-up and loss of mass on a sensor chip optically.)

As to “GGGAGAUUGGAAUAACUUGCAGUGUCUUGCAGUAUUGUGAAACCAGCAACUUGUUCACAAUUCUUCUGAAUUUCUUGGGAAAUUUGAAGUGGAGUACCUGUACCAACAUGAAAUGACACGAAUUUAAGUGACGCUCAACAACGAAAAGCAAAAAGAACCAAAGAGGAAGCAACUGAAACAACAUCUGGAUGUAUUUAAAAAUAUACAAUGCCUCCAAAAUCAGGUGUCAUUAAUGAAAAUUCUGAAGAAAUG [DRAIC 705-950]”, the binding result in the series with IKKα-His [1] is on record as “binds”.
Usually Kd stands for the constant that tells how readily two partners part at equilibrium. Consider “UUGGAAUAACUUGCAGUGCCAGCAACUUGUUCACAA [A+B DRAIC RNA]”, for which the Kd with IKKα-His [2] was 0.541 nM.
As to UUGGAAUAACUUGCAGUGCCAGCAACUUGUUCACAA (structured_RNA) [5'-biotin A+B DRAIC RNA], the binding result with GST-NEMO is given as “no binding”. The Kd in the series with MBP-IKKα-6His turned out to be 6.29 ± 1.08 nM.
